Measured values published in patent US20100047243A1 (published 2010).

Biological target: T1, recombinant cynomolgus macaque IGF-1R (IGF-1R-Fc fusion protein of Example 4) (cynomolgus macaque (Macaca fascicularis))
T1 construct: also called Cynomolgus IGF-1R; cyno IGF-1R
Test: Biacore T100, antibody captured on Protein A, recombinant cynomolgus IGF-1R analyte (256-16 nM), HBS-EP, 37 C
Protocol: Protein A was immobilised on a CM5 surface by primary amine coupling in accordance with the manufacturers standard protocols. Antibodies against IGF-1R were captured on this surface and after a period of stabilisation recombinant human or cynomolgus IGF-1R was injected over this captured surface. […] Data was analysed using the 1:1 model inherent to the Biacore machine, the work was carried out on the T100 using HBS-EP running buffer at 37° C.

T1 sequence (chain, as listed by the source limits assumed): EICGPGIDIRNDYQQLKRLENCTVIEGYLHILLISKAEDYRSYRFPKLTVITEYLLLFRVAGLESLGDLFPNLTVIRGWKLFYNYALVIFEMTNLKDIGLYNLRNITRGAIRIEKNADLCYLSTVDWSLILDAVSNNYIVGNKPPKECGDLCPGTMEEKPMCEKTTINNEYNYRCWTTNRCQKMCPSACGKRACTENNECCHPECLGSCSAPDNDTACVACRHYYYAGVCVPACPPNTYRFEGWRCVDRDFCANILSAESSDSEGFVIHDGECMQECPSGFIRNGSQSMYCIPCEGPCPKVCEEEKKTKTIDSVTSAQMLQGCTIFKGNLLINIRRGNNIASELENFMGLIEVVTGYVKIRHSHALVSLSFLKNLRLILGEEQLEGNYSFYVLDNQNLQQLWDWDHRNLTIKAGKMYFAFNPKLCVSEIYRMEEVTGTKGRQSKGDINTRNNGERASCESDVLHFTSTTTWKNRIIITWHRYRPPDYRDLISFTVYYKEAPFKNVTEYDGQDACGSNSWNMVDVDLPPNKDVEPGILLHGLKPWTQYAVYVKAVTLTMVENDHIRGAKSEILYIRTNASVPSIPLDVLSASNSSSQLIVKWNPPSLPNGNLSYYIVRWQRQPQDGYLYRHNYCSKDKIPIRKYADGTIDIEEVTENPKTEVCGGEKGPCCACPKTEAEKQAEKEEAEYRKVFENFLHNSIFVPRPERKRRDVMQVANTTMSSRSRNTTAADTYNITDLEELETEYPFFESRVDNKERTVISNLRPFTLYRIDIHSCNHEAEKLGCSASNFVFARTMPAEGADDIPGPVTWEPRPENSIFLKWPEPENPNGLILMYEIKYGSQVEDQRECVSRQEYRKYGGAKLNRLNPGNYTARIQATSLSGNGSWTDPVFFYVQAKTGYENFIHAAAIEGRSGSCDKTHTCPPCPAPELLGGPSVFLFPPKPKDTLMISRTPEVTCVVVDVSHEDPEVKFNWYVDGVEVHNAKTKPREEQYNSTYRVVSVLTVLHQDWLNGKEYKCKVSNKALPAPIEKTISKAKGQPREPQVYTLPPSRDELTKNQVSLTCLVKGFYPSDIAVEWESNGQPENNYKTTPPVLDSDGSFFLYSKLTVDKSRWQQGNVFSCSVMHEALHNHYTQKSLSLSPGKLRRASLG

Kd: 0.19 nM
B1: 6E11 chimeric antibody (antibody, human IgG1, kappa, V domains shown)
VH: EVQLQQSGPELVKPGASVRISCKASGYAFTDYYMNWVKQSHGKSLEWVANINPNNGGTNYNQKFKDKATLTVDKSSNTAYMELRSLTSEDTAVYYCARWILYYGRSKWYFDVWGTGTLVTVSS
VL: DVLMTQTPLSLPVSLGDHASISCRSSQSIVQSNGDTYLEWYLQKPGQSPKLLIYRISNRFSGVPDRFSGSGSGTDFTLKISRVEAEDLGVYYCFQGSHVPYTFGGGTKLEIKR
notes: Murine 6E11 variable domains on human IgG1/kappa wild type constant regions; also called 6E11 chimera; 6E11 chimaera
